Target: T1, purified p53 protein (Abcam) (UniProt P04637 1-393)
T1 construct: p53 protein bought from Abcam; also called immobilized p53; source: bought: Abcam
Test: ELISA; solid phase direct binding assay; p53 immobilised on 96-well plates at 5 μg/well, 20 h, 4 °C; 3% BSA; GST-tagged Kindlin-2 variants or GST 0–7 µM in TBS with 1 mM CaCl2, 1 mM MgCl2, 2 h at 37 °C; detected with anti-GST-HRP; GST signal subtracted; one-site binding fit
Conditions: both partners purified

T1 sequence (P04637 whole entry): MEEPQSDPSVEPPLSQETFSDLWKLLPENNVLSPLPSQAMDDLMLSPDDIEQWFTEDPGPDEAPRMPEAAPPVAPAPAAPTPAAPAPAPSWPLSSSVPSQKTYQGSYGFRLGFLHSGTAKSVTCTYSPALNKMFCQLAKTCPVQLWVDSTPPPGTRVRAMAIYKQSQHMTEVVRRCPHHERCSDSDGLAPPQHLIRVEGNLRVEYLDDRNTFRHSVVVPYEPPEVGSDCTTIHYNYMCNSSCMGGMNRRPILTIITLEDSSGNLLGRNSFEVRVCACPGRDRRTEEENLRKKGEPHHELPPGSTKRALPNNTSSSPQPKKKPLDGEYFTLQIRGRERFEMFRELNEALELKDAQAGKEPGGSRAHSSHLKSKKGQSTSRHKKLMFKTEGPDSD

B1: GST-tagged full-length wild-type Kindlin-2 (natural protein, UniProt Q96AC1 1-680, looked up)
chain: MALDGIRMPDGCYADGTWELSVHVTDLNRDVTLRVTGEVHIGGVMLKLVEKLDVKKDWSDHALWWEKKRTWLLKTHWTLDKYGIQADAKLQFTPQHKLLRLQLPNMKYVKVKVNFSDRVFKAVSDICKTFNIRHPEELSLLKKPRDPTKKKKKKLDDQSEDEALELEGPLITPGSGSIYSSPGLYSKTMTPTYDAHDGSPLSPTSAWFGDSALSEGNPGILAVSQPITSPEILAKMFKPQALLDKAKINQGWLDSSRSLMEQDVKENEALLLRFKYYSFFDLNPKYDAIRINQLYEQAKWAILLEEIECTEEEMMMFAALQYHINKLSIMTSENHLNNSDKEVDEVDAALSDLEITLEGGKTSTILGDITSIPELADYIKVFKPKKLTLKGYKQYWCTFKDTSISCYKSKEESSGTPAHQMNLRGCEVTPDVNISGQKFNIKLLIPVAEGMNEIWLRCDNEKQYAHWMAACRLASKGKTMADSSYNLEVQNILSFLKMQHLNPDPQLIPEQITTDITPECLVSPRYLKKYKNKQITARILEAHQNVAQMSLIEAKMRFIQAWQSLPEFGITHFIARFQGGKKEELIGIAYNRLIRMDASTGDAIKTWRFSNMKQWNVNWEIKMVTVEFADEVRLSFICTEVDCKVVHEFIGGYIFLSTRAKDQNESLDEEMFYKLTSGWV
notes: Kindlin-2, full length, wild type; expressed as a GST fusion protein; also called Kindlin-2-GST; GST-tagged WT Kindlin-2; source: Escherichia coli, purified on Glutathione-Sepharose
  EC50: 480 nM

From article PMC6629707, “The Kindlin2-p53-SerpinB2 signaling axis is required for cellular senescence in breast cancer” (Cell Death & Disease, 2019)
